Results reported in US20230226096A1 (Orna Therapeutics, Inc., priority 2020, published 2023).

B1: ABPV (nucleic acid)
DNA: CCCGTCAAAATAACAACTTATAACACGATGTTACCCGAAGAAACCATTTTAGTGTAACATTTAAGATTAGAAGTAGTTCATCTAATAGAGATAGGCACTATTAGAAGGAGGCCTTTTCTAAAGGAGCCGTTAGTCAGCCCAGACAAGCGCAGTACTTTAGAAGAGAGAAGTTCCCCGATAGCGACCGAAAAGACGCGTTTTCCGTGCTAACTAATTTAAATGTGGGAACGAATATTATTATTGAAATTATGTGAGCCACGTAGCAATCAAGTCATGTTTTTGTCACTACGTTTACTCATCTAATGTAGATAATTTTGTTTAAGTACCTATTTAGGTGTCATCCCACCAGAGAAGAAATAATACGTACCGGAACCCAGAGTACACCCCTTATTTTAAGCCTTACTGGGCTTCTCTGTTAGTTAGTAATCTGGCCCACGTTTTGCGTTGAGTGGGGTCCCAACAGTAGGAATTCGACGGACAAGTAGCAAGCGAGTCGGTACCAATTGGTTTAGCCTTCGAAATTACTCTGGGCAGGAAGTTACTAAACGAGAACTTTCTGCTTAAATCCCAACGCACAAACAAATAGAGTAAATAAATAATTATA
modifications: Acute bee paralysis virus
B2: Hunnivirus A1 (nucleic acid, listed as Hunnivirus sp.)
DNA: TAACGTTTGGCAAGAACCCTCACCTGTCAATTGGGACCACCACTTTCAGTGACCCCATGCGAAGTAGTGAGAGAGAATAAGCTTTCTTACCCTTCATTTGTGAACCCTTCAGTCGAAGCCGCTTGGAATAAGATAGGAGGAAAAGTTCATTCTAAATGGAGTGAAACATGTACTTCAGAATTTCTAGCACGCGCTGGGCTTTCTTGCGTGTGACGGCACTGTCTTGCCGGAGCTCTCCACACTGACACCCCACGCTTGTGGACCTTGGTGGCAGATGACAACACTGCAGCTGGAATTGAGTGTCTGGTACACTCTGTGTAACAGTGAAAACAATGTGATCACTTCGGTGAGCTAGTAGCCTGTGGACCAACAACTGGTAACAGTTGCCTCAGGGGCCAAAAGCCACGGTGTTTACAGCACCCTACTGGTTTGATTGGAGCAATCCAAGATGTCACAGAGTTAGTAATTGCCAAGCAGTCCGTACTGGTATCTTGACATACCGTGCAGTTTTGGATAGTGAAGGATGCCCTGACGGTACCCATAGGTAACAAGTGACACTATGGATCTAAGCAGGGGCTCACTCTACGCTGCTTTACAGCTGGCTGTGAGTTAAAAAACGTCTAGCTATCCACAACCTAGGGGACTAGGTTTTCCTTTTATTTAGATTACAATTAT
B3: BRBV-1 (nucleic acid)
DNA: CCCCCCCTACTTAAAGATGTACGGTTTTGCTGCTTTCACAGAGTAAAGCAGATAGAGGTTCTGAACTGGCAAACTTTACCTCGAAACACGCCCGTTTTTCTGCTGTGTCTCACAGACTGTCCTGTCACACTTGTGGCGGCTTGTGACACTGTGAACATAGTGAGACCGACCAAGACAACAGTTTCAAGTGATGAACATCGAACGTCTAAACTGGATCCGTAACTGGACATGTTAGGGCAAGGACTTCCCCCCTGGTAACAGGAGCCTGGCTGGCCAAAAGCCCCGCTCATTGAGCCTAGCATGTTGTCGACCCTGGACTGTTCAGTTTAGTTAGTACATGGAATTCACTTGTCACGGTTCTTCTGAACTCGGTCTCTAGTATGACAGCCTAAGGATGCCCTCCAGGTACCCCGGGGTAACAAGTGACACCCGGGATCTGAGGAGGGGACTACTTTACGTAGTTTAAAAAACGTCTAAGCTGTTATGGTGACCAGAGGCTGGCACCTTTCACTTTTAAAATTACACTACTGACTACAATTGAAGTGATAACGGTTTTACAGGCTTTCAAACTAGTTACACAAGCACTGTTTTCCTGACACACACACTTT
modifications: Bovine rhinitis B virus
B4: Ia Io (nucleic acid)
DNA: GGTGTCCGGGTGTGTGGGATAGACCCAGATGTGCAGTGGATGCGAGCATTTGAGTCAGAGTAGGAGCAAGCCCAGGGGCAAAGGGACCACATTGTGTATCCCGAATGAAGGATCGAGATTTCTCTCCTCATTACCCGGTGTCTTGTCACTGTTGGGGGGGCCCAACAGTCTTAGTCCTATACTGCCTGATAGGGTCGCGGCTGGCCGGACTCAAGTGCTATAGTCAGTTGATTTTCACTC
B5: Mobovirus A (nucleic acid)
DNA: TATTCTCCCACAAACCTTCTTGTAACTCTGTTAAGCCTTTTACATCCATGTAATTTAATTTTCTCCACCTAAAAGGATTTCCCCCATGGTCCTTTTTGGCTCGAACAAATGCTACATAGGGTCTTGTTTTCTCCCCCTGGCTCTCTTGCCAGGGTTCCATACCCCAATTCCTCTATTTCCATGATTTTTCATCATGGTTTATTTTTACTGTCTTCTTATTTTCTGAGGTGACCAACTCCTAAGCCGACTGGGTCGCGGAAGCCCGGACTCCTCGCATCACTAGGGTGCGTAGCGATGTAGGCGAAAATATTGGTTGCTAGATGCATACATATAGTGAATTGATACTACACCAAACTCTGTTCTTTTTGAAACTAGCTATTTTCTAAGTAAGGTAGGCTACGGGTGAAACCTTACCATTGCAGGTACGTGAACCGCAACGGACATTTGGCCGAAGACTGGTGTACCCACGTCAGTTATAGGACCTCTTCAACGTTGGTGGACGGCATGTCACTGATTAGTTAGGCTAGTGAATTTAAGTTCAGGGGGTATCTTTTAGCTTAAGCGTGTATTCTAGTAGGACTTGCAGAGCCTCCCCACCTAGGAGGATCTCTGTTTATAGCCCCTTTTCCTTGTTCCGTTAGTTTTCCACACTTTTACAATATTTGATGATTTGTT
B6: Burpengary Virus (nucleic acid)
DNA: CTCCCCCCCCTTCCCCTTCCCGAGTAGGAGATTGGCATGTATGCTCTACATGCCCGATTCTCTCTTGCTCACTCTCTTAAATCCTGGTGGCGGTCTCGGATTAAACATTTATGTCGTATCTGGGATCGTCTTACTTGGTGGTAATTCCTCTGTTGCCTAGGGACCTCCGGACTGCCGGATTAAAGGTCTCAACAGAGGGCAATGTACAAGGAAGTCATTATACGCTAATTAAGTATTTGATGAATGACTAGTGTGACAGGGCTGAGGAACTCCCCCCGGGTAACCGGTGCCTCAGCGTCCGAAAGACACGTGGATAGGATCCACCCTGTTATACCCAGCACGATGTAATAGTCAAATACCTCTGATTTGTGTAGGATGTATAAATTGTGCATTGTAAATTTTGGGCGTAGAGATGCTCCGAAGGTACCCCGTTTTACGGGATCTGATCGGAGGCTAATTACCCAATGCGCCCTAAATAACTTCATATAATTTCTTTTTCTTTATTCAAA
B7: GFTV (nucleic acid)
DNA: ATGGGGAAGGGTATGACGTGCCCCTTCCTTCTTCGGAGAACTCGCTCTAGTGGTCTTTCCACTTCTGGAAAAGAGTGAGTGCACGTGATCAGGACCGTCGAAGACGACAAATACCTGGTGCTCTATCTCATAGACGTTTCACAGCTGTAGCGACCCCTCAGTAGCAGCGGAAGCCCCCTCCTGGTGACAGGAGCCTCTGCGGCCAAAAGCCACGTGGATAAGATCCACTGCTGAGGGCGGTGCGACCCTAGCACCCTGTGATGCATACTAGTTGTAGCGTGCCGGACTATTGGTCTGTCATAAGACACCTGATAGAGAGACCAAGAATGTCCTGGAGGTACCCCGCGTGCGGGATCTGACCAGGAGACCATTGCCCAATGCTTTACAACGGGTCTATGGTTTAAAAACTGTCGCAGTCTCTCCAAACCAAGTGGTCTTGGTTTTCAATTACTTTGAATATTTCACT
B8: BRAV-2 (nucleic acid)
DNA: TTTGTTTTGCGGCTTTGCCGTTGTTCGGGTTTTACCTGTTTTCACACAGCAAAACAGGCCTTCTAGTTTCGTGCTTAAACGAGATCATGCTCGAACTAGAACTACATAGCTGGTCACTGGACTCATACCACACCTTGTGGAGCTTTATGGGAAAGGTGGCTAGTGGGCTGTGGAAGTGACTCTGACCACATGCCTCTCAAGTGTGGGAAATCACGGATCGGTGTAGCGACGACAACAGGCCTTGGGACACCCTCTCCAGTAATGGAGACCCAAGGGGCCAAAAGCCACGCCTCGTGCCCTGTTGTTCACAACCCCAGTGCGACCCGTGTTAGTACCTATTTGCGAGAACTGTGTCTGGACAGCTAAACACAACCCTAGTGGGAGACTAAGGATGCCCAGGAGGTACCCGGAGGTAACAAGTGACACTCTGGATCTGACCTGGGGAGAGAGGGCTTGCTTTACAGGCGCCTCTCTTTAAAAAGCTTCTATGTCTCATCAGGCACCGGAGGCCGGGCCTTTTCCTTTTAAAATTACACTTA
modifications: Bovine rhinitis A virus
B9: Hunnivirus A2 (nucleic acid, listed as Hunnivirus sp.)
DNA: ACAGTTTTTGACAAGGACCCTCACCTGTCAATCGGGACCACCACTTTCAGTGACCCCGTGCGAAGTGTTGAGAGAAAGTGAGCTTTCTTACCCTTCATTTGTGAACCCTTCAGTCGAAGCCGCTTGGAATAAGATGGAAGGAAATGTTCATTCTAAATGGAGTGAAACATATACTTAATTTCCAGTGTTTAGTGGTCTTTCCACTAGACAACGGCACTGTCTTGCCGGAACTCTACACACCAACATTCCACGCTTGTGGGACTCAAATGTTGGATGACACAGTTGTAGCTGGAACTGAGTGTTTAGTGCACTCTGTGTAACAGTGAAAACAATGTGATCACTTCGGTGGGCTAGTAGCCTGTGGACTAACAACTGGTAACAGTTGCCTCAGGGGCCAAAAGCCACGGTGTTAACAGCACCCTACTAGTTTGATTGGAGCAATCCATGATGTTACAGAGTTAGTAACTGCCAAACAGATTGTACTGGTATCTTGGCATACCGTGCAACTTAGGATAGTGAAGGATGCCCTGGCGGTACCCATAGGTAACAAGTGACACTATGGATCTAAACAGGGGCTCACTCTACGTTGCTTTACAACTAGCTGTGAGTTAAAAAACGTCTAACTATCCACAACCTAGGGGACTAGGTTTTCCTTTTTATTTTTATACACAACTA
B10: SAFV V13C (nucleic acid)
DNA: TTTTCGACGTGGTTGGAATTGCCATCATTTCCGACGAAAGTGCTATCATGCCTCCCCGATTATGTGATGTTTTCTGCCCTGCTGGGCGGAGCATTCTCGGGTTGAGAAACCTTGAATCTTTTTCTTTGGAACCTTGGTTCCCCCGGTCTAAGCCGCTTGGAATATGACAGGGTTATTTTCTTGATCTTATTTCTACTTTTGCGGGTTCTATCCGTAAAAAGGGTACGTGCTGCCCCTTCCTTCTCTGGAGAATTCACACGGCGGTCTTTCCGTCTCTCAACAAGTGTGAATGCAGCATGCCGGAAACGGTGAAGAAAACAGTTTTCTGTGGAAATTTAGAGTGCACATCGAAACAGCTGTAGCGACCTCACAGTAGCAGCGGACTCCCCTCTTGGCGACAAGAGCCTCTGCGGCCAAAAGCCCCGTGGATAAGATCCACTGCTGTGAGCGGTGCAACCCCAGCACCCTGGTTCGATGATCATTCTCTATGGAACCAGAAAATGGTTTTCTCAAGCCCTCCGGTAGAGAAGCCAAGAATGTCCTGAAGGTACCCCGCGTGCGGGATCTGATCAGGAGACCAATTGGCGGTGCTTTACACTGTCACTTTGGTTTAAAAATTGTCACAGCTTCTCCAAACCAAGTGGTCTTGGTTTTCCAATTTTGTTGAATGGCAAT

Each molecule was assayed on HEK293 cells. Settings: luminescence from secreted Gluc in supernatant 24 hours after transfection of HEK293 cells; circular RNA encoding Gluc with the named IRES (UTR truncated to 675 nt).
Type: cell-based, human
Molecule B1 has an Expression of 6.48E+05.
Molecule B2 has an Expression of 1.61E+06.
Molecule B3 has an Expression of 3.34E+06.
B4 gave an Expression of 1.35E+06.
For B5, the Expression was 3.44E+06.
Molecule B6 has an Expression of 1.09E+07.
With B7 the Expression was 1.23E+06.
In the case of B8, the Expression is reported as 3.98E+06.
For B9, the Expression was 6.38E+06.
For B10, the Expression was 9.32E+07.
